The results in this text go back to patent US20030068675, “Position dependent recognition of GNN nucleotide triplets by zinc fingers” (published 2003).

Holding throughout (experiment): EMSA
Settings in all cases: tags: MBP fusion

Data set [1] has as its target T1, ZFP SBS#1384 (synthetic, UniProt P08047).
T1 chain: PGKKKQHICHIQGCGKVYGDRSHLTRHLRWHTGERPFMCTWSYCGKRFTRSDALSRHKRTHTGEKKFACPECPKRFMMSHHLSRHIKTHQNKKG
In outline: (§1)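 Purified ZFP was titrated against labeled double-stranded target (1 nM or lower, at least 10-fold below expected Kd) carrying the natural binding site with flanks. Binding buffer was 10 mM Tris pH 7.5, 100 mM KCl, 1 mM MgCl2, 0.1 mM ZnCl2, 5 mM DTT, 10% glycerol, 0.02% BSA, with equilibration for at least 45 min. Bound and free target were separated on a 10% polyacrylamide gel.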

In data set [2] the target is ZFP SBS#1393 (synthetic). Put shortly:
as §1

The target in data set [3] is ZFP SBS#1394 (synthetic, UniProt P08047). In outline:
as §1

Data set [4] concerns the target T2, ZFP SBS#1381 (synthetic).
T2 chain: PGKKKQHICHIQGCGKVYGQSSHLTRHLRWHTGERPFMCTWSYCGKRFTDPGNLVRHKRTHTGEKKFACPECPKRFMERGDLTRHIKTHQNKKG
Put shortly: as §1

In data set [5] the target is T3, ZFP SBS#1380 (synthetic).
T3 chain: T2 chain with P51R, G52S, V55T
In outline: as §1

Data set [6] concerns the target T4, ZFP SBS#1383 (synthetic).
T4 chain: T2 chain with E78D, R79C, G80R, T83A
Put shortly: as §1

Data set [7] addresses T5, ZFP SBS#1382 (synthetic).
T5 chain: T2 chain with P51R, G52S, V55T, E78D, R79C, G80R, T83A
In outline:
as §1

In data set [8] the target is ZFP SBS#1403 (synthetic). In outline:
as §1

For data set [9], the target named is ZFP SBS#263 (synthetic, UniProt P08047). In outline: as §1
Chain of ZFP SBS#263 (P08047 other isoform, or with tags, fused parts or gaps): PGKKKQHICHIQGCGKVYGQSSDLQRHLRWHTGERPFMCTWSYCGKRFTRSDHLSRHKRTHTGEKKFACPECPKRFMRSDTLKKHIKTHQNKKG
Data set [10] addresses ZFP SBS#262 (synthetic). Put shortly:
as §1

Data set [11] concerns the target T6, ZFP SBS#1404 (synthetic).
T6 chain: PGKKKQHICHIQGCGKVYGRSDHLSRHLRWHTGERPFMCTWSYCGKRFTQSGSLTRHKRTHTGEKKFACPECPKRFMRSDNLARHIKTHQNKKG
Put shortly: as §1

The target in data set [12] is T7, ZFP SBS#1405 (synthetic).
T7 chain: T6 chain with S53D
In outline:
as §1

The target of data set [13] is T8, ZFP SBS#1378 (synthetic).
T8 chain: T6 chain with H23A, S25T, Q50R, G52D, S53D, T55Q, N81D, A83R, R84E
In outline: as §1

In data set [14] the target is T9, ZFP SBS#1375 (synthetic).
T9 chain: T6 chain with H23A, S25T, Q50R, G52D, S53D, T55Q, N81E, A83R, R84E
Put shortly: as §1

The target of data set [15] is T10, ZFP SBS#1379 (synthetic).
T10 chain: T6 chain with H23A, S25T, Q50R, G52D, S53E, L54R, T55K, N81D, A83R, R84E
In outline: as §1

The target of data set [16] is T11, ZFP SBS#1376 (synthetic).
T11 chain: T6 chain with H23A, S25T, Q50R, G52D, S53E, L54R, T55K, N81E, A83R, R84E
In outline: as §1

In data set [17] the target is T12, ZFP SBS#1374 (synthetic, UniProt P08047).
T12 chain: T6 chain with H23A, S25T, Q50R, G52D, S53E, T55Q, N81E, A83R, R84E
In outline:
as §1

Data set [18] deals with T13, ZFP SBS#1377 (synthetic, UniProt P08047).
T13 chain: T6 chain with H23A, S25T, Q50R, G52D, S53E, T55Q, N81D, A83R, R84E
Put shortly: as §1

Data set [19] addresses ZFP SBS#1385 (synthetic). In outline: as §1
Data set [20] addresses T14, ZFP SBS#1386 (synthetic).
T14 chain: T6 chain with R20E, S21N, D22W, H23K, S25Q, R26A, N81H, A83T, R84T
Put shortly: as §1

For data set [21], the target named is T15, ZFP SBS#1400 (synthetic).
T15 chain: T6 chain with H23N, S25A, G52S, S53H, T55A, N81D, A83R, R84E
Put shortly: as §1

For data set [22], the target named is T16, ZFP SBS#1373 (synthetic, UniProt P08047).
T16 chain: T1 chain with M78R, H80D, H81A, S83T
In outline: as §1

Data set [23] concerns the target T17, ZFP SBS#1389 (synthetic).
T17 chain: T6 chain with S25T, R26T, Q50D, S51C, G52R, S53D, T55A, N81A, A83R, R84E
Put shortly:
as §1

In data set [24] the target is T18, ZFP SBS#1329 (synthetic).
T18 chain: T6 chain with S25T, R26T, Q50D, S51R, G52S, S53D, N81A, A83R, R84E
In outline:
as §1

Data set [25] concerns the target T19, ZFP SBS#1331 (synthetic).
T19 chain: T6 chain with S25T, R26T, Q50D, S51C, G52R, S53D, T55A, N81A, A83R, R84E
In outline:
as §1

For data set [26], the target named is T20, ZFP SBS#1408 (synthetic).
T20 chain: T6 chain with N81E, A83R, R84E
Put shortly: as §1

The target in data set [27] is T21, ZFP SBS#1409 (synthetic).
T21 chain: T6 chain with N81D, A83R, R84E
In outline: as §1

The target in data set [28] is ZFP SBS#1407 (synthetic). Put shortly: as §1
Chain of ZFP SBS#1407 (synthetic) (chain, as listed by the source): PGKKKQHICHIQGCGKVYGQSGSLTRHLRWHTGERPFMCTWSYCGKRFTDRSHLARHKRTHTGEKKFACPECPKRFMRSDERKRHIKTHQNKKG
For data set [29], the target named is ZFP SBS#1406 (synthetic). In outline: as §1
Chain of ZFP SBS#1406 (synthetic) (chain, as listed by the source): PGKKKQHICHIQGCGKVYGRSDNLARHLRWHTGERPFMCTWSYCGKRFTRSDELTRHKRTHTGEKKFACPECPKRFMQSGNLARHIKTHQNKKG
Data set [30] addresses T22, ZFP SBS#1368 (synthetic).
T22 chain: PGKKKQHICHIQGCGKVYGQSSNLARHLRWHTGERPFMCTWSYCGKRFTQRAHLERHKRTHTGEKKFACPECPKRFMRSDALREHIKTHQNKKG
Put shortly: as §1

Data set [31] has as its target T23, ZFP SBS#1369 (synthetic).
T23 chain: T22 chain with R51S, A52G, E55T
Put shortly: as §1

The target in data set [32] is ZFP SBS#1397 (synthetic). Put shortly: as §1
Chain of ZFP SBS#1397 (synthetic) (chain, as listed by the source): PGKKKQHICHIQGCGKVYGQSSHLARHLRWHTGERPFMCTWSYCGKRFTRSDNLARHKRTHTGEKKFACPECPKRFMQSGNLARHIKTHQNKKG
Data set [33] has as its target T24, ZFP SBS#1396 (synthetic).
T24 chain: T1 chain with D20Q, S22A, T25A, A53N, S55A, M78Q, H80G, H81N, S83A
Put shortly:
as §1

Data set [34] has as its target ZFP SBS#1395 (synthetic). Put shortly: as §1

Substitutions are numbered along the chain they refer to.

Chain of ZFP SBS#1395 (synthetic) (chain, as listed by the source): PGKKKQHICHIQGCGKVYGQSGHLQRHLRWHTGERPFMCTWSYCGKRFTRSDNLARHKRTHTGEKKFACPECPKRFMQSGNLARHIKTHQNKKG
Chain of ZFP SBS#1385 (synthetic) (chain, as listed by the source): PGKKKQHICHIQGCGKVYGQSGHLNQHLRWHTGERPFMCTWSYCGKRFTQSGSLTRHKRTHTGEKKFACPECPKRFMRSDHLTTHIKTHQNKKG
Chain of ZFP SBS#262 (synthetic) (chain, as listed by the source): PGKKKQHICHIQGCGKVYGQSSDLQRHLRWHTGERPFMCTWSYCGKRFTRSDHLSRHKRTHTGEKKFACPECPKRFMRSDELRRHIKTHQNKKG
Chain of ZFP SBS#1394 (P08047 other isoform, or with tags, fused parts or gaps): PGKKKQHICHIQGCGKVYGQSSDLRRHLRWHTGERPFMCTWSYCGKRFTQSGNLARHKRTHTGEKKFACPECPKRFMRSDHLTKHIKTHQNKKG

B1: GGTGTGGGC (dsDNA)
DNA 1: GGTGTGGGC
DNA 2: GCCCACACC
In data set [1], B1 registered a dissociation constant (Kd) of 0.013 nM.

B2: TGGGAAGCT (dsDNA)
DNA 1: TGGGAAGCT
DNA 2: AGCTTCCCA
Turning to B2, the Kd in data set [2] turned out to be 0.1 nM; in data set [3], 0.04 nM.

B3: GCCGACGGT (dsDNA)
DNA 1: GCCGACGGT
DNA 2: ACCGTCGGC
As to B3, the equilibrium dissociation constant (Kd) in [4] came out at 0.23 nM; in data set [5], 0.076 nM; in [6] it was 1.74 nM; in data set [7], 3.1 nM.

B4: ATGGCAATG (dsDNA)
DNA 1: ATGGCAATG
DNA 2: CATTGCCAT
In data set [8], B4 had a Kd of 0.07 nM.

B5: GCGGGGGCT (dsDNA)
DNA 1: GCGGGGGCT
DNA 2: AGCCCCCGC
With B5, the Kd worked out at 1 nM in data set [9] and 20 nM in [10].

B6: GAGGCAGGG (dsDNA)
DNA 1: GAGGCAGGG
DNA 2: CCCTGCCTC
Take B6: the values for the Kd in data set [11] and in data set [12] were 0.022 nM and 0.045 nM, respectively.

B7: CCGGCGGTG (dsDNA)
DNA 1: CCGGCGGTG
DNA 2: CACCGCCGG
Consider B7, for which the Kd was found to be 0.012 nM in [13]; 0.008 nM in data set [14]; 0.25 nM in data set [15]; 0.858 nM in [16]; 0.003 nM in [17]; 0.012 nM in [18].

B8: TGGGCAAGA (dsDNA)
DNA 1: TGGGCAAGA
DNA 2: TCTTGCCCA
Consider B8, for which the Kd in data set [19] amounted to 0.229 nM; in data set [20], 0.193 nM.

B9: CCGGGTGAG (dsDNA)
DNA 1: CCGGGTGAG
DNA 2: CTCACCCGG
Consider B9, for which, in [21], the Kd was determined as 0.371 nM.

B10: GTGGTGGGC (dsDNA)
DNA 1: GTGGTGGGC
DNA 2: GCCCACCAC
As to B10, the Kd in data set [22] is 0.025 nM.

B11: CTGGCCTGG (dsDNA)
DNA 1: CTGGCCTGG
DNA 2: CCAGGCCAG
B11: the values for the Kd in data set [23], in [24] and in [25] were 0.175 nM, 0.68 nM and 0.388 nM, respectively.

B12: CCGGCAGGG (dsDNA)
DNA 1: CCGGCAGGG
DNA 2: CCCTGCCGG
With B12, the Kd in data set [26] is 0.305 nM; in data set [27], 0.153 nM.

B13: GCGGGCGCA (dsDNA)
DNA 1: GCGGGCGCA
DNA 2: TGCGCCCGC
For B13, the equilibrium dissociation constant (Kd) in [28] worked out at 0.585 nM.

B14: GAAGCGGAG (dsDNA)
DNA 1: GAAGCGGAG
DNA 2: CTCCGCTTC
For B14, binding in data set [29] was put at a Kd of 0.025 nM.

B15: CTGGGAGAT (dsDNA)
DNA 1: CTGGGAGAT
DNA 2: ATCTCCCAG
For the molecule B15, the Kd in data set [30] came out at 0.051 nM; in data set [31], 0.227 nM.

B16: GAAGAGGGA (dsDNA)
DNA 1: GAAGAGGGA
DNA 2: TCCCTCTTC
Consider B16, for which the dissociation constant Kd in [32] was found to be 0.14 nM; in data set [33], 0.107 nM; in [34], 0.025 nM.
